Results reported in the array DNA melting data of Ke et al..

assay: melting temperature; melt of duplexes; settings: sodium 0.0675 M; strand 1 µM

Row | Substance | Tm
1 | CGACGTGCCCAATGTGCTG+CAGCACATCTCGCACGTCG ((((((((...((((((((+))))))))...)))))))) | 47.6 °C
2 | CGACGTGCTGGATGTGCTG+CAGCACATTCAGCACGTCG ((((((((((.((((((((+)))))))).)))))))))) | 60 °C
3 | CGACGTGCCATATGTGCTG+CAGCACATTCTGCACGTCG ((((((((...((((((((+))))))))...)))))))) | 48.8 °C
4 | CGACGTGCTCCATGTGCTG+CAGCACATTGAGCACGTCG ((((((((((.((((((((+)))))))).)))))))))) | 56.5 °C
5 | CGACGTGCAATATGTGCTG+CAGCACATGCGGCACGTCG ((((((((...((((((((+))))))))...)))))))) | 49.7 °C
6 | CGACGTGCCACATGTGCTG+CAGCACATAGTGCACGTCG ((((((((...((((((((+))))))))...)))))))) | 46.9 °C
7 | CGACGTGCTCCATGTGCTG+CAGCACATCCAGCACGTCG (((((((((..((((((((+))))))))..))))))))) | 48.7 °C
8 | CGACGTGCGGGATGTGCTG+CAGCACATCACGCACGTCG (((((((((.(((((((((+))))))))).))))))))) | 63.8 °C
9 | CGACGTGCTGAATGTGCTG+CAGCACATAGTGCACGTCG ((((((((...((((((((+))))))))...)))))))) | 45.3 °C
10 | CGACGTGCCACATGTGCTG+CAGCACATTTCGCACGTCG ((((((((.(.((((((((+)))))))).).)))))))) | 47.3 °C
11 | CGACGTGCATGATGTGCTG+CAGCACATTACGCACGTCG ((((((((.(.((((((((+)))))))).).)))))))) | 50.6 °C
12 | CGACGTGCGGAATGTGCTG+CAGCACATTATGCACGTCG ((((((((..(((((((((+)))))))))..)))))))) | 55.4 °C
13 | CGACGTGCGATATGTGCTG+CAGCACATATAGCACGTCG ((((((((.((((((((((+)))))))))).)))))))) | 57.5 °C
14 | CGACGTGCTGTATGTGCTG+CAGCACATTTTGCACGTCG ((((((((...((((((((+))))))))...)))))))) | 49.2 °C
15 | CGACGTGCAACATGTGCTG+CAGCACATAAAGCACGTCG ((((((((...((((((((+))))))))...)))))))) | 48.9 °C
16 | CGACGTGCCGCATGTGCTG+CAGCACATGGAGCACGTCG ((((((((..(((((((((+)))))))))..)))))))) | 55.1 °C
17 | CGACGTGCGCGATGTGCTG+CAGCACATCGTGCACGTCG ((((((((.((((((((((+)))))))))).)))))))) | 62.4 °C
18 | CGACGTGCTTCATGTGCTG+CAGCACATGTGGCACGTCG ((((((((..(((((((((+)))))))))..)))))))) | 54.8 °C
19 | CGACGTGCACTATGTGCTG+CAGCACATAACGCACGTCG ((((((((..(((((((((+)))))))))..)))))))) | 46.2 °C
20 | CGACGTGCCATATGTGCTG+CAGCACATCCCGCACGTCG ((((((((...((((((((+))))))))...)))))))) | 46.9 °C
21 | CGACGTGCCATATGTGCTG+CAGCACATACAGCACGTCG ((((((((..(((((((((+)))))))))..)))))))) | 49.9 °C
22 | CGACGTGCCTGATGTGCTG+CAGCACATATGGCACGTCG (((((((((..((((((((+))))))))..))))))))) | 55.8 °C
23 | CGACGTGCCCAATGTGCTG+CAGCACATTCCGCACGTCG ((((((((..(((((((((+)))))))))..)))))))) | 49.3 °C
24 | CGACGTGCTGAATGTGCTG+CAGCACATCCCGCACGTCG ((((((((.(.((((((((+)))))))).).)))))))) | 51 °C

Row | Substance | Tm
25 | CGACGTGCGTTATGTGCTG+CAGCACATAAGGCACGTCG ((((((((.((((((((((+)))))))))).)))))))) | 56.5 °C
26 | CGACGTGCAATATGTGCTG+CAGCACATTAAGCACGTCG ((((((((...((((((((+))))))))...)))))))) | 50.1 °C
27 | CGACGTGCAAGATGTGCTG+CAGCACATCTAGCACGTCG ((((((((.((((((((((+)))))))))).)))))))) | 57.9 °C
28 | CGACGTGCAACATGTGCTG+CAGCACATGCGGCACGTCG ((((((((..(((((((((+)))))))))..)))))))) | 53.5 °C
29 | CGACGTGCTGCATGTGCTG+CAGCACATAACGCACGTCG ((((((((...((((((((+))))))))...)))))))) | 49.4 °C
30 | CGACGTGCATTATGTGCTG+CAGCACATTCCGCACGTCG ((((((((...((((((((+))))))))...)))))))) | 47.5 °C
31 | CGACGTGCGCCATGTGCTG+CAGCACATAGAGCACGTCG ((((((((.(.((((((((+)))))))).).)))))))) | 54.4 °C
32 | CGACGTGCCGAATGTGCTG+CAGCACATACAGCACGTCG ((((((((.(.((((((((+)))))))).).)))))))) | 50.4 °C
33 | CGACGTGCTGGATGTGCTG+CAGCACATACAGCACGTCG ((((((((((.((((((((+)))))))).)))))))))) | 61.4 °C
34 | CGACGTGCGGGATGTGCTG+CAGCACATCTAGCACGTCG ((((((((..(((((((((+)))))))))..)))))))) | 57.8 °C
35 | CGACGTGCTCAATGTGCTG+CAGCACATCATGCACGTCG ((((((((...((((((((+))))))))...)))))))) | 49.7 °C
36 | CGACGTGCGTTATGTGCTG+CAGCACATAGAGCACGTCG ((((((((..(((((((((+)))))))))..)))))))) | 54.6 °C
37 | CGACGTGCTAAATGTGCTG+CAGCACATCGGGCACGTCG ((((((((...((((((((+))))))))...)))))))) | 49.7 °C
38 | CGACGTGCCCTATGTGCTG+CAGCACATCGCGCACGTCG ((((((((.(.((((((((+)))))))).).)))))))) | 48.1 °C
39 | CGACGTGCATGATGTGCTG+CAGCACATTTCGCACGTCG ((((((((...((((((((+))))))))...)))))))) | 48.7 °C
40 | CGACGTGCCATATGTGCTG+CAGCACATTTTGCACGTCG ((((((((.(.((((((((+)))))))).).)))))))) | 49.6 °C
41 | CGACGTGCTCGATGTGCTG+CAGCACATACAGCACGTCG (((((((((..((((((((+))))))))..))))))))) | 51.8 °C
42 | CGACGTGCCTCATGTGCTG+CAGCACATCTAGCACGTCG ((((((((...((((((((+))))))))...)))))))) | 47.8 °C
43 | CGACGTGCTTCATGTGCTG+CAGCACATTACGCACGTCG ((((((((.(.((((((((+)))))))).).)))))))) | 47.8 °C
44 | CGACGTGCGATATGTGCTG+CAGCACATGCGGCACGTCG ((((((((...((((((((+))))))))...)))))))) | 50 °C
45 | CGACGTGCGCAATGTGCTG+CAGCACATTATGCACGTCG ((((((((..(((((((((+)))))))))..)))))))) | 52.6 °C
46 | CGACGTGCTTTATGTGCTG+CAGCACATAAAGCACGTCG (((((((((((((((((((+))))))))))))))))))) | 61 °C
47 | CGACGTGCATCATGTGCTG+CAGCACATTCCGCACGTCG ((((((((...((((((((+))))))))...)))))))) | 46.6 °C
48 | CGACGTGCGTAATGTGCTG+CAGCACATTACGCACGTCG (((((((((((((((((((+))))))))))))))))))) | 63.9 °C

Row | Substance | Tm
49 | CGACGTGCTCGATGTGCTG+CAGCACATACGGCACGTCG ((((((((...((((((((+))))))))...)))))))) | 50.5 °C
50 | CGACGTGCAGAATGTGCTG+CAGCACATCACGCACGTCG ((((((((...((((((((+))))))))...)))))))) | 50.1 °C
51 | CGACGTGCGTCATGTGCTG+CAGCACATTACGCACGTCG ((((((((((.((((((((+)))))))).)))))))))) | 57.4 °C
52 | CGACGTGCCTCATGTGCTG+CAGCACATTACGCACGTCG ((((((((.(.((((((((+)))))))).).)))))))) | 46.4 °C
53 | CGACGTGCGCGATGTGCTG+CAGCACATGTCGCACGTCG (((((((((..((((((((+))))))))..))))))))) | 55.5 °C
54 | CGACGTGCACTATGTGCTG+CAGCACATTAAGCACGTCG ((((((((...((((((((+))))))))...)))))))) | 44.3 °C
55 | CGACGTGCTGCATGTGCTG+CAGCACATGTAGCACGTCG (((((((((.(((((((((+))))))))).))))))))) | 60.4 °C
56 | CGACGTGCAGTATGTGCTG+CAGCACATCGTGCACGTCG (((((((((..((((((((+))))))))..))))))))) | 48.2 °C
57 | CGACGTGCTTCATGTGCTG+CAGCACATGAAGCACGTCG (((((((((((((((((((+))))))))))))))))))) | 64.4 °C
58 | CGACGTGCTACATGTGCTG+CAGCACATGCAGCACGTCG (((((((((.(((((((((+))))))))).))))))))) | 58.1 °C
59 | CGACGTGCCGTATGTGCTG+CAGCACATATTGCACGTCG ((((((((..(((((((((+)))))))))..)))))))) | 51.5 °C
60 | CGACGTGCTCCATGTGCTG+CAGCACATGACGCACGTCG ((((((((..(((((((((+)))))))))..)))))))) | 49.8 °C
61 | CGACGTGCGATATGTGCTG+CAGCACATTATGCACGTCG ((((((((...((((((((+))))))))...)))))))) | 52.2 °C
62 | CGACGTGCATAATGTGCTG+CAGCACATAGAGCACGTCG ((((((((...((((((((+))))))))...)))))))) | 48.7 °C
63 | CGACGTGCTTTATGTGCTG+CAGCACATCTCGCACGTCG ((((((((...((((((((+))))))))...)))))))) | 46.5 °C
64 | CGACGTGCAGCATGTGCTG+CAGCACATACAGCACGTCG ((((((((.(.((((((((+)))))))).).)))))))) | 48.3 °C
65 | CGACGTGCCATATGTGCTG+CAGCACATTTAGCACGTCG ((((((((.(.((((((((+)))))))).).)))))))) | 49.7 °C
66 | CGACGTGCACTATGTGCTG+CAGCACATGATGCACGTCG (((((((((..((((((((+))))))))..))))))))) | 48.8 °C
67 | CGACGTGCTGTATGTGCTG+CAGCACATCTGGCACGTCG ((((((((...((((((((+))))))))...)))))))) | 50.9 °C
68 | CGACGTGCGATATGTGCTG+CAGCACATGCCGCACGTCG (((((((((..((((((((+))))))))..))))))))) | 54.8 °C
69 | CGACGTGCAAGATGTGCTG+CAGCACATGTCGCACGTCG ((((((((.(.((((((((+)))))))).).)))))))) | 51.3 °C
70 | CGACGTGCTACATGTGCTG+CAGCACATGCGGCACGTCG ((((((((..(((((((((+)))))))))..)))))))) | 54.1 °C
71 | CGACGTGCGAAATGTGCTG+CAGCACATTCTGCACGTCG ((((((((..(((((((((+)))))))))..)))))))) | 53.7 °C
72 | CGACGTGCAAAATGTGCTG+CAGCACATAGGGCACGTCG ((((((((...((((((((+))))))))...)))))))) | 48.7 °C
